Experimental data from the supplement of paper PMC9112550, “Optimization of the antimicrobial peptide Bac7 by deep mutational scanning” (BMC Biology, 2022).

System: Escherichia coli TOP10
Experiment: shrunken log2 fold change of peptide-encoding DNA abundance (4.5 h post-induction vs induction); higher = less antimicrobial activity (less host growth inhibition)
Settings: time post-induction: 4.5 h; library: site-saturation at positions 5, 18, 19, 20
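Further: peptides expressed intracellularly from a pBAD plasmid library in pooled LB shake-flask culture, induced with 0.3% L-arabinose, DNA abundance read by NGS, three biological replicates, DESeq2 with apeglm shrinkage.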

Sequence | shrunken log2 fold change
RRIRMRPPRLPRPRPRPAPQPRP | 1.77
RRIRSRPPRLPRPRPRPRIRPRP | -0.0466
RRIRPRPPRLPRPRPRPKMAPRP | -0.0597
RRIRLRPPRLPRPRPRPWVTPRP | -0.145
RRIRFRPPRLPRPRPRPAHGPRP | 0.418
RRIRIRPPRLPRPRPRPNQWPRP | -0.422
RRIRWRPPRLPRPRPRPQQRPRP | -0.102
RRIRIRPPRLPRPRPRPGGEPRP | -0.063
RRIRSRPPRLPRPRPRPPLPPRP | 0.688
RRIRCRPPRLPRPRPRPRRIPRP | -0.246
RRIRLRPPRLPRPRPRPRALPRP | 2.21
RRIRQRPPRLPRPRPRPTGIPRP | -0.177
RRIRQRPPRLPRPRPRPCIPPRP | 0.00582
RRIRNRPPRLPRPRPRPPGIPRP | -0.0351
RRIRCRPPRLPRPRPRPPKYPRP | -0.291
RRIRSRPPRLPRPRPRPDASPRP | 0.495
RRIRFRPPRLPRPRPRPWTWPRP | 0.0306
RRIRWRPPRLPRPRPRPHGLPRP | 0.0735
RRIRDRPPRLPRPRPRPLVQPRP | 0.709
RRIRIRPPRLPRPRPRPYEMPRP | -0.00062
RRIRFRPPRLPRPRPRPYSDPRP | -0.298

Sequence | shrunken log2 fold change
RRIRIRPPRLPRPRPRPHQAPRP | -0.0342
RRIRWRPPRLPRPRPRPLIIPRP | -0.269
RRIRKRPPRLPRPRPRPKHVPRP | 0.473
RRIRIRPPRLPRPRPRPKNHPRP | -0.622
RRIRPRPPRLPRPRPRPMESPRP | 0.0152
RRIRMRPPRLPRPRPRPPITPRP | -0.109
RRIRCRPPRLPRPRPRPYDWPRP | -0.204
RRIRCRPPRLPRPRPRPMTKPRP | 0.0306
RRIRTRPPRLPRPRPRPMSMPRP | -0.171
RRIRQRPPRLPRPRPRPQRGPRP | 0.235
RRIRTRPPRLPRPRPRPIAIPRP | -0.0261
RRIRMRPPRLPRPRPRPHCHPRP | -0.137
RRIRLRPPRLPRPRPRPCRCPRP | 0.00318
RRIRPRPPRLPRPRPRPDSNPRP | -0.221
RRIRYRPPRLPRPRPRPSGYPRP | -0.714
RRIRSRPPRLPRPRPRPWCSPRP | -0.296
RRIRMRPPRLPRPRPRPYKNPRP | -0.259
RRIRQRPPRLPRPRPRPEGAPRP | 0.852
RRIRERPPRLPRPRPRPNCIPRP | -0.712
RRIRARPPRLPRPRPRPFHEPRP | -0.166
RRIRHRPPRLPRPRPRPYRFPRP | -0.269

Sequence | shrunken log2 fold change
RRIRARPPRLPRPRPRPRMPPRP | 0.251
RRIRKRPPRLPRPRPRPDGQPRP | 0.0566
RRIRMRPPRLPRPRPRPTDNPRP | 0.188
RRIRRRPPRLPRPRPRPGKQPRP | 0.254
RRIRYRPPRLPRPRPRPTTVPRP | -0.243
RRIRRRPPRLPRPRPRPITYPRP | -0.0184
RRIRSRPPRLPRPRPRPGTPPRP | 0.0374
RRIRTRPPRLPRPRPRPWPTPRP | 0.371
RRIRVRPPRLPRPRPRPTVVPRP | 0.0028
RRIRKRPPRLPRPRPRPCDQPRP | -0.0132
RRIRHRPPRLPRPRPRPQCCPRP | -0.00176
RRIRARPPRLPRPRPRPVIVPRP | 0.142
RRIRRRPPRLPRPRPRPMDVPRP | 0.0427
RRIRCRPPRLPRPRPRPHVLPRP | -0.172
RRIRRRPPRLPRPRPRPAEAPRP | 0.148
RRIRDRPPRLPRPRPRPMHHPRP | -0.146
RRIRMRPPRLPRPRPRPFLSPRP | -0.0215
RRIRTRPPRLPRPRPRPWPPPRP | 0.154
RRIRYRPPRLPRPRPRPGDDPRP | -0.286
RRIRIRPPRLPRPRPRPYICPRP | -0.393
